Experimental findings from patent publication US12428663B2, “Identification of DNA polymerase theta inactivation mechanism” (The Johns Hopkins University, priority 2018, dated 2025) are described below.

This series concerns primer-template complex 5. The experiment in a line: Steady-state kinetic analysis of dA incorporation in 5 by Pol θ variants (polymerase activity). Type of series: biochemical. As to conditions: dA incorporation in 5, 25° C. Here is the method: 1.4.3. Steady-state kinetic analysis of dA incorporation in 5 by Pol θ. Polymerase reactions were conducted with Pol θ (432 pM for wild type Pol θ and 5 nM for K2383A and K2383R), 5′-^32P-5 (50 nM), and a range of dATP concentrations (0.25 μM-100 μM for wild type and 62.5-5000 μM for mutants) at 25° C. in reaction buffer (10 mM Tris HCl pH 8, 25 mM KCl, 10 mM MgCl2, 1 mM BME). The concentration range for dATP and the reaction time were selected so that reactions proceeded no further than 25% (single-hit conditions). In a typical experiment, a 2×DNApolymerase solution was prepared by mixing 5′-^32P-5 (500 nM, 18 μL), 10×reaction buffer (18 μL), 10×Pol θ (4.32 nM for wild type or 50 nM for mutants, 18 μL) in storage buffer (20 mM Tris HCl pH 7, 300 mM NaCl, 10% glycerol, 5 mM BME), and H2O (36 μL). The 2×DNAenzyme solution (3 μL) was mixed with the appropriate 2×dNTP solution (3 μL) to initiate the reaction. Reactions were incubated for 20 s for wild type Pol θ, 1.5 min for K2383R, and 4 min for K2383A, after which, they were quenched with 95% formamide loading buffer containing 25 mM EDTA (6 μL). An aliquot (4 μL) was analyzed by 20% denaturing PAGE run at 55 W for approximately 3.5 h. The gel was analyzed by phosphorimaging, and the data were fit to the Michaelis-Menten equation. The kcat was determined by dividing Vmax by the active concentration of enzyme. […]

B1: wt28: wild type Pol θ catalytic core (residues 1792-2590) (protein, UniProt O75417 1792-2590, looked up, fragment)
chain: GFKDNSPISDTSFSLQLSQDGLQLTPASSSSESLSIIDVASDQNLFQTFIKEWRCKKRFSISLACEKIRSLTSSKTATIGSRFKQASSPQEIPIRDDGFPIKGCDDTLVVGLAVCWGGRDAYYFSLQKEQKHSEISASLVPPSLDPSLTLKDRMWYLQSCLRKESDKECSVVIYDFIQSYKILLLSCGISLEQSYEDPKVACWLLDPDSQEPTLHSIVTSFLPHELPLLEGMETSQGIQSLGLNAGSEHSGRYRASVESILIFNSMNQLNSLLQKENLQDVFRKVEMPSQYCLALLELNGIGFSTAECESQKHIMQAKLDAIETQAYQLAGHSFSFTSSDDIAEVLFLELKLPPNREMKNQGSKKTLGSTRRGIDNGRKLRLGRQFSTSKDVLNKLKALHPLPGLILEWRRITNAITKVVFPLQREKCLNPFLGMERIYPVSQSHTATGRITFTEPNIQNVPRDFEIKMPTLVGESPPSQAVGKGLLPMGRGKYKKGFSVNPRCQAQMEERAADRGMPFSISMRHAFVPFPGGSILAADYSQLELRILAHLSHDRRLIQVLNTGADVFRSIAAEWKMIEPESVGDDLRQQAKQICYGIIYGMGAKSLGEQMGIKENDAACYIDSFKSRYTGINQFMTETVKNCKRDGFVQTILGRRRYLPGIKDNNPYRKAHAERQAINTIVQGSAADIVKIATVNIQKQLETFHSTFKSHGHREGMLQSDQTGLSRKRKLQGMFCPIRGGFFILQLHDELLYEVAEEDVVQVAQIVKNEMESAVKLSVKLKVKVKIGASWGELKDFDV
modifications: catalytic core
In the case of B1, the Km (usually the substrate concentration at which the rate is half of its maximum) was 5 ± 1 µM; the kcat (commonly the number of substrate molecules converted per active site and unit of time at saturation) came out at 1.08 ± 0.2 s⁻¹.
